Paper PMC6279242 (Cell host & microbe, 2018)

Molecular target: T1, GST-SIK1ΔN (Arabidopsis thaliana, UniProt O24527 249-836)
T1 sequence (looked up): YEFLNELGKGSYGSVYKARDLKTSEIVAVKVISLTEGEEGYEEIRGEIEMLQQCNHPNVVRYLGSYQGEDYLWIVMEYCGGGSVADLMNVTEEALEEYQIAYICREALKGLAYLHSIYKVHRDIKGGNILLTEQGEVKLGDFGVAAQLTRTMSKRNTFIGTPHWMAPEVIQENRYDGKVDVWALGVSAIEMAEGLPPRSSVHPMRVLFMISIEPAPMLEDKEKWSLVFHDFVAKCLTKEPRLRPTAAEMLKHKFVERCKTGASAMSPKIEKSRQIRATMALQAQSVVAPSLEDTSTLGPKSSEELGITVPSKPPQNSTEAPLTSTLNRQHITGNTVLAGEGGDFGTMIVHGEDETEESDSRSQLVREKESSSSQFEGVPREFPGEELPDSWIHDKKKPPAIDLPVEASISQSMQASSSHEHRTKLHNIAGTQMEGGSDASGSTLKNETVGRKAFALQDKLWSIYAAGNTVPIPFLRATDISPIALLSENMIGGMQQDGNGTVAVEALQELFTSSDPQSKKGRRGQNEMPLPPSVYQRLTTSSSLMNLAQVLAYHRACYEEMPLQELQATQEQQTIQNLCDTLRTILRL
Assay: pull-down

B1: MBP-BIK1 (enzyme, Arabidopsis thaliana, UniProt O48814 1-395, looked up)
chain: MGSCFSSRVKADIFHNGKSSDLYGLSLSSRKSSSTVAAAQKTEGEILSSTPVKSFTFNELKLATRNFRPDSVIGEGGFGCVFKGWLDESTLTPTKPGTGLVIAVKKLNQEGFQGHREWLTEINYLGQLSHPNLVKLIGYCLEDEHRLLVYEFMQKGSLENHLFRRGAYFKPLPWFLRVNVALDAAKGLAFLHSDPVKVIYRDIKASNILLDADYNAKLSDFGLARDGPMGDLSYVSTRVMGTYGYAAPEYMSSGHLNARSDVYSFGVLLLEILSGKRALDHNRPAKEENLVDWARPYLTSKRKVLLIVDNRLDTQYLPEEAVRMASVAVQCLSFEPKSRPTMDQVVRALQQLQDNLGKPSQTNPVKDTKKLGFKTGTTKSSEKRFTQKPFGRHLV
B1: binds.
